Changes are numbered by the printed parent chain. Blank lines part the entries; values can stand above or below the binder they belong to.
What was measured:
[1] = target: T1, EGFR on cells (A431, NCI-H292, NCI-H322, NCI-H441) (human, UniProt P00533 25-1210); assay: cell-based or functional assay
[2] = target: T1, EGFR on cells (A431, NCI-H292, …); assay: cell-based or functional assay; remark: listed apart in the source
[3] = target: T2, c-Met on cells (NCI-H441, NCI-H292, U87-MG) (human, UniProt P08581 25-1390); assay: cell-based or functional assay
T2 sequence (P08581 other isoform, or with tags, fused parts or gaps limits assumed): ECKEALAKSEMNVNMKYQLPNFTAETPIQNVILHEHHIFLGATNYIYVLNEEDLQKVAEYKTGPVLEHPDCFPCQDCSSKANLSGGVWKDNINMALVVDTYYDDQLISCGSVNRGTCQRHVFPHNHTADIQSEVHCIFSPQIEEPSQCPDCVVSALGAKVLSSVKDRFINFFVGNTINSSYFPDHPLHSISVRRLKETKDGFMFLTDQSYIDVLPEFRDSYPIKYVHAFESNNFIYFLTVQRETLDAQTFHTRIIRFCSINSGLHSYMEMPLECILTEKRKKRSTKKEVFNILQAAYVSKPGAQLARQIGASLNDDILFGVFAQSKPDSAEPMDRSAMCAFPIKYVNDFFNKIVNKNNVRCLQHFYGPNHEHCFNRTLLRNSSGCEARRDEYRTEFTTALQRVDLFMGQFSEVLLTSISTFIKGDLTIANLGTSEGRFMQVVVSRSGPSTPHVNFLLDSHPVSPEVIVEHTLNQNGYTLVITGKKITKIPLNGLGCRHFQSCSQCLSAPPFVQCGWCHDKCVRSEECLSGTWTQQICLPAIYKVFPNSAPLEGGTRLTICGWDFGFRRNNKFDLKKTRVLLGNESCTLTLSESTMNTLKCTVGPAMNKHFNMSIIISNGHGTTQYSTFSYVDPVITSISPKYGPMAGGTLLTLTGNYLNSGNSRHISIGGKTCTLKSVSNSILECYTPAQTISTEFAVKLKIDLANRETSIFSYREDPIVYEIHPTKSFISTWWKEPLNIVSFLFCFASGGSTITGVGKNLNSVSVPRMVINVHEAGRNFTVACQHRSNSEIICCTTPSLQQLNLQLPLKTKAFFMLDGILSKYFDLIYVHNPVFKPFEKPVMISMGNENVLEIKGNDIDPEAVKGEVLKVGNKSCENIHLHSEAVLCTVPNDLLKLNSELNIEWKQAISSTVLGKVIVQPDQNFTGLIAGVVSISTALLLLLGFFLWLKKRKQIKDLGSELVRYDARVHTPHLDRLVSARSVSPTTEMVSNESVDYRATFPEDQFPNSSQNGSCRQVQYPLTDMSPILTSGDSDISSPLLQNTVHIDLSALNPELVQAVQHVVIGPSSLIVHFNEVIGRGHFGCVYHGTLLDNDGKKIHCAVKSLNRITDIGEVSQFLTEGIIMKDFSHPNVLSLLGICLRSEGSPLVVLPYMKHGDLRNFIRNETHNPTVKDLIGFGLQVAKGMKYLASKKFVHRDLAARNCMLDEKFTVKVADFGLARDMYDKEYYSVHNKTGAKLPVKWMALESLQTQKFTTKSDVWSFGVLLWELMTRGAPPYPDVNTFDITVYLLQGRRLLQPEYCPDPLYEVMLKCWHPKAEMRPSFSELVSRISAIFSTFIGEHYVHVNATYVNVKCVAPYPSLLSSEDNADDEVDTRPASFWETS

[4] = target: T1, EGFR on cells (A431, NCI-H292, …); assay: cell-based or functional assay; remark: listed apart in the source
[5] = target: T3, EGFR (form in the assay not stated) (human, UniProt P00533 25-645, limits assumed); assay: ELISA, NEM conjugate 10 nM (the reference itself)
[6] = target: T3, EGFR (form in the assay not stated); assay: ELISA, NEM conjugate 500 nM (the reference itself)
[7] = target: T3, EGFR (form in the assay not stated); assay: ELISA, NEM conjugate 100 nM (the reference itself)
[8] = target: T2, c-Met on cells (NCI-H441, NCI-H292, …); assay: cell-based or functional assay; remark: listed apart in the source
[9] = target: T1, EGFR on cells (A431, NCI-H292, …); assay: cell-based or functional assay; remark: listed apart in the source

- Phospho-EGFR IC50, A431 cells [1]: 170 nM
B2: P54AR4-48 (designed binder)
chain: LPAPKNLVVSEVTEDSLRLSWDDPRGFYESFLIQYQESEKVGEAINLTVPGSERSYDLTGLKPGTEYTVSIYGVHNVYKDTNMRGLPLSAEFTT

- Phospho-EGFR IC50, A431 cells [1]: 141 nM
B3: P54AR4-73 (designed binder)
chain: B2 chain with D22T, D23W, R25Y, G26A, F27D, Y28L, E29D

- Phospho-EGFR IC50, A431 cells [1]: 184 nM
B4: P54AR4-17 (designed binder)
chain: B2 chain with D22T, D23Y, P24D, G26D, F27G, E29D

- Phospho-EGFR IC50, A431 cells [1]: 18 nM
B5: P54AR4-83 (designed binder)
chain: B2 chain with R25W, G26A

- EGF-stimulated EGFR phosphorylation in NCI-H292 cells IC50 [2]: 1.4 nM
- HGF-stimulated c-Met phosphorylation in NCI-H292 cells IC50 [3]: 0.4 nM
B7: ECB147v6-PEG24 (designed binder)
chain: MLPAPKNLVVSEVTEDSARLSWDDPWAFYESFLIQYQESEKVGEAIVLTVPGSERSYDLTGLCPGTEYTVSIYGVHNVYKDTNMRGLPLSAIFTTAPAPAPAPAPLPAPKNLVVSRVTEDSARLSWTAPDAAFDSFWIRYFEFLGSGEAIVLTVPGSERSYDLTGLKPGTEYVVNIMSVKGGSISPPLSAIFTTAPAPAPAPAPLAEAKVLANRELDKYGVSDYYKNLINNAKTVEGVKALLDEILAALP
modifications: PEG24-maleimide on the engineered cysteine

- EGF-stimulated EGFR phosphorylation in NCI-H292 cells IC50 [2]: 1.6 nM
- HGF-stimulated c-Met phosphorylation in NCI-H292 cells IC50 [3]: 0.5 nM
B10: ECB147v3-PEG24 (designed binder)
chain: B7 chain with A98C, K167C, A197C
modifications: PEG24-maleimide on the engineered cysteines

- c-Met phosphorylation in NCI-H292 cells IC50 [8]: 610 nM
B14: P114AR5P74-A5 (designed binder)
chain: LPAPKNLVVSRVTEDSARLSWTAPDAAFDSFWIRYDEVVVGGEAIVLTVPGSERSYDLTGLKPGTEYYVNILGVKGGSISVPLSAIFTT

- fold decrease of IC50 for inhibition of EGFR phosphorylation in NCI-H441 cells against monospecific P53A1R5-17v2 [9]: 30 fold
B15: ECB5 (designed binder)
chain: MLPAPKNLVVSEVTEDSARLSWADPHGFYDSFLIQYQESEKVGEAIVLTVPGSERSYDLTGLKPGTEYTVSIYGVHNVYKDTNMRGLPLSAIFTTGGGGSGGGGSGGGGSGGGGSMLPAPKNLVVSRVTEDSARLSWTAPDAAFDSFWIRYFEFLGSGEAIVLTVPGSERSYDLTGLKPGTEYVVNIMGVKGGKISPPLSAIFTT

Second part, the binder before the results:

B1: P53A1R5-17 (designed binder)
chain: B2 chain with D22A, R25H, E29D
- Phospho-EGFR IC50, A431 cells [1]: > 2500 nM

B6: ECB38 (designed binder)
chain: B7 chain with C63K, S178G, S183K
- EGF-stimulated EGFR phosphorylation in NCI-H292 cells IC50 [2]: 2.3 nM
- HGF-stimulated c-Met phosphorylation in NCI-H292 cells IC50 [3]: 1.3 nM

B8: ECB147v7-PEG24 (designed binder)
chain: B7 chain with C63K, A98C, A197C
modifications: PEG24-maleimide on the engineered cysteines
- EGF-stimulated EGFR phosphorylation in NCI-H292 cells IC50 [2]: 1.4 nM
- HGF-stimulated c-Met phosphorylation in NCI-H292 cells IC50 [3]: 0.5 nM

B9: ECB147v5-PEG24 (designed binder)
chain: B7 chain with K167C
modifications: PEG24-maleimide on the engineered cysteines
- EGF-stimulated EGFR phosphorylation in NCI-H292 cells IC50 [2]: 0.9 nM
- HGF-stimulated c-Met phosphorylation in NCI-H292 cells IC50 [3]: 0.4 nM

B11: P54CR4-31 (designed binder)
chain: LPAPKNLVVSEVTEDSLRLSWTAPDAAFDSFLIQYQESEKVGEAINLTVPGSERSYDLTGLKPGTEYTVSIYGVLGSYVFEHDVMLPLSAEFTT
- Phospho-EGFR IC50, A431 cells [1]: 179 nM

B12: 83v2cy5-mal-PEG4-VK-MMAF (designed binder)
chain: MLPAPKNLVVSEVTEDSARLSWDDPWAFYESFLIQYQESEKVGEAIVLTVPGSERSYDLTGLKPGTEYTVSIYGVHNVYKDTNMRGLPLSAIFTTGGHHHHHHC
modifications: mal-PEG4-VK-MMAF on the cysteine
- IC50 A431 (nM), cell viability [4]: 3.9 nM

B13: 83v2His6-cys, NEM conjugate (designed binder)
chain: B12 chain
modifications: NEM on the C-terminal Cys
notes: also called P54AR4-83v2-cys; P54AR4-83v2 parent
- binding ratio vs parent P54AR4-83v2 [5]: 1 ratio
- binding ratio vs parent P54AR4-83v2 [6]: 1 ratio
- binding ratio vs parent P54AR4-83v2 [7]: 1 ratio

— patent publication US20170362301A1 (Janssen / Centocor, published 2017)
